Patent publication US20150301068A1 (VIB VZW, published 2015)

Biological target: the molecule itself
Experiment: Western blot of HEK lysates after detergents, 95 C and beta-mercaptoethanol; homodimer band at about 50 kDa

B1: tetraspanin 6 (TSPAN6) (other)
chain: MASPSRRLQTKPVITCFKSVLLIYTFIFWITGVILLAVGIWGKVSLENYFSLLNEKATNVPFVLIATGTVIILLGTFGCFATCRASAWMLKLYAMFLTLVFLVELVAAIVGFVFRHEIKNSFKNNYEKALKQYNSTGDYRSHAVDKIQNTLHCCGVTDYRDWTDTNYYSEKGFPKSCCKLEDCTPQRDADKVNNEGCFIKVMTIIESEMGVVAGISFGVACFQLIGIFLAYCLSRAITNNQYEIV
notes: Endogenous TSPAN6 in HEK cell lysates, exosomes and human CSF, on Western blots; also called tetraspanin TM4-D; tetraspanin TM4SF
**Q.** Does B1 bind?
**A.** binds
